T1: SMCR8 (Smith-Magenis syndrome chromosome region, candidate 8) (human, UniProt Q8TEV9 1-937)
T1 sequence: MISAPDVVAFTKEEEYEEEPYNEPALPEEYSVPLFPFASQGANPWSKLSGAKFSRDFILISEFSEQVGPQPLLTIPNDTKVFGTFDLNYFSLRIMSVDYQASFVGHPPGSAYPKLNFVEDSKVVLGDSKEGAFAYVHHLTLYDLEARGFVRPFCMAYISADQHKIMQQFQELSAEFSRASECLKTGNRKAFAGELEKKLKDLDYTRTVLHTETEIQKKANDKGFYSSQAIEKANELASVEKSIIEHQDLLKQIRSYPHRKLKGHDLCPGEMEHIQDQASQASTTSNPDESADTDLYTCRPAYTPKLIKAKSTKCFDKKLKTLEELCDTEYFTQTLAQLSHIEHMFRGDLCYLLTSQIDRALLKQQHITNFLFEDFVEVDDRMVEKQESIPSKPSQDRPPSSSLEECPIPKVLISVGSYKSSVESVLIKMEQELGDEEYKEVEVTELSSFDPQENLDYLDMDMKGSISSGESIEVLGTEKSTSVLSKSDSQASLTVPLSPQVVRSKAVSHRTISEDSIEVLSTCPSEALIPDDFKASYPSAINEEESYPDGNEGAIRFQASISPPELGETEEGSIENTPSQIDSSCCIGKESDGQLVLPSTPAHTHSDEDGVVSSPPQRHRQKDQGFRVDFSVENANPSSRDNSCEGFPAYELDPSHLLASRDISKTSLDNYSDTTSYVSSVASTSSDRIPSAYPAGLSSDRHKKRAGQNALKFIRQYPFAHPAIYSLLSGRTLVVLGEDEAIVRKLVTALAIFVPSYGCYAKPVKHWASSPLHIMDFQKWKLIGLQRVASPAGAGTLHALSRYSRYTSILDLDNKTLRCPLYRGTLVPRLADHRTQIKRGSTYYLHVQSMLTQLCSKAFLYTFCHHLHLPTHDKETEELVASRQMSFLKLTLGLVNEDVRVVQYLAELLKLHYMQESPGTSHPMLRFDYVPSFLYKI


Target: T1, SMCR8 (Smith-Magenis syndrome …)
Assay: cryo-EM structure

Row | Binder | binding result
1 | WDR41 (WD repeat protein 41) (natural protein) MLRWLIGGGREPQGLAEKSPLQTIGEEQTQNPYTELLVLKAHHDIVRFLVQLDDYRFASAGDDGIVVVWNAQTGEKLLELNGHTQKITAIITFPSLESCEEKNQLILTASADRTVIVWDGDTTRQVQRISCFQSTVKCLTVLQRLDVWLSGGNDLCVWNRKLDLLCKTSHLSDTGISALVEIPKNCVVAAVGKELIIFRLVAPTEGSLEWDILEVKRLLDHQDNILSLINVNDLSFVTGSHVGELIIWDALDWTMQAYERNFWDPSPQLDTQQEIKLCQKSNDISIHHFTCDEENVFAAVGRGLYVYSLQMKRVIACQKTAHDSNVLHVARLPNRQLISCSEDGSVRIWELREKQQLAAEPVPTGFFNMWGFGRVSKQASQPVKKQQENATSCSLELIGDLIGHSSSVEMFLYFEDHGLVTCSADHLIILWKNGERESGLRSLRLFQKLEENGDLYLAV | binds
2 | C9orf72 (natural protein) MSTLCPPPSPAVAKTEIALSGKSPLLAATFAYWDNILGPRVRHIWAPKTEQVLLSDGEITFLANHTLNGEILRNAESGAIDVKFFVLSEKGVIIVSLIFDGNWNGDRSTYGLSIILPQTELSFYLPLHRVCVDRLTHIIRKGRIWMHKERQENVQKIILEGTERMEDQGQSIIPMLTGEVIPVMELLSSMKSHSVPEEIDIADTVLNDDDIGDSCHEGFLLNAISSHLQTCGCSVVVGSSAEKVNKIVRTLCLFLTPAERKCSRLCEAESSFKYESGLFVQGLLKDSTGSFVLPFRQVMYAPYPTTHIDVDVNTVKQMPPCHEHIYNQRRYMRSELTAFWRATSEEDMAQDTIIYTDESFTPDLNIFQDVLHRDTLVKAFLDQVFQLKPGLSLRSTFLAQFLLVLHRKALTLIKYIEDDTQKGKKPFKSLRNLKIDLDLTAEGDLNIIMALAEKIKPGLHSFIFGRPFYTSVQERDVLMTF | binds

Reference: article PMC8054479 (Nature, 2020)
